In the test the target is YFP(N)-Sso1p (S. cerevisiae) (UniProt P32867). The test is described as follows: split reporter.
Chain of UniProt P32867 (P32867 whole entry): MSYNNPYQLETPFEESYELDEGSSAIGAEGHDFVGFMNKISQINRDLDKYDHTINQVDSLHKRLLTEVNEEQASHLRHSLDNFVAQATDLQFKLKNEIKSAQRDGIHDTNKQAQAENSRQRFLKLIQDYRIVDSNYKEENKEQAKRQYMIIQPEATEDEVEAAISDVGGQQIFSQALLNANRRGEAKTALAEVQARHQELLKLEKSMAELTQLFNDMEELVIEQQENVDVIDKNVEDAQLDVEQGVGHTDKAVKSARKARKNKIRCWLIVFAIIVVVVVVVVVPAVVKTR

Substance “Sec1p(658–724)-YFP(C) (from UniProt P30619 658-724) (domain or fragment)” displayed a percent stronger BiFC signal than Sec1p(658–724)-Sso2p of 22%.

These data come from PMC3020918.
